From the nanobody polyreactivity screen of Harvey et al. (2022)

Experiment: yeast display, Sf9 membrane polyspecificity reagent, FACS + sequencing; frameworks hold sequencing errors
How it was run: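 Polyreactivity labels are assigned by the sorting gate from which each nanobody was recovered. The gates were low and high (top ~1%), set on anti-HA fluorescence for expression and streptavidin fluorescence for reagent binding. Before sorting, galactose-induced (36–48 hours) yeast display cells were stained for 1 hour at 4 °C with 10% biotinylated, detergent-solubilized Sf9 membrane reagent.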

With “QVQLVESGGGLVQAVGRLRLSCAASGSTFAIYAMGWYRQAPGKERELVAAITVSGGSTYYADSVKGRFTISRDNAKNTVYLQMNSLKPEDTAVYYCNADWSGWQGWYNYWGQGTQVTVSS” as the sequence, how does the “polyreactivity (PSR sort gate)” value read?
Its value is “low polyreactivity”.

For “QVQLVESGGGLVQAVGSLRLSCAACGSIFYWNALGWYRQAPGKEREFVASIRKSGGSTNYADSVKGRFTISRDNAMNTVYLQMNSMKPEDSAVYDCAAYSYYRGPIYDYWGQGTQVTVSS”, which “polyreactivity (PSR sort gate)” value is on record?
The value was “low polyreactivity”.

For “QVQLVESGGGLVQAVGSLRLSCAASGFPFRRYALGCYRQAPGKERELDATISSSGASTYYADSVKGRFTISRDHAKNTVYFKMIRLKPVDTAVYYCAATKGSICKLYLYCLFDYWGQGTQVTVSS”, which “polyreactivity (PSR sort gate)” value is on record?
Its value is “high polyreactivity”.

With “QVQLVESGGGLVQAVGSLRLSCAASGGIFRVYAMGWYREAPGKEREMVAAIRWTGGSTYYADSVKGRFKISRDNAKNTVYLQMKRLKPEDTAVYYWAAGRYYSDGSRTIYDYWGQGTQVTVSS” as the sequence, how does the “polyreactivity (PSR sort gate)” value read?
Its value is “low polyreactivity”.

Which “polyreactivity (PSR sort gate)” value does the source give for “QVQLVESGGGLVQAVGSLRLSCAASGGTIDIYAMGWYRQAPAKERELVARISYSSGSTHYADSVKGRFTNSRDNAKNTVYLQMNSLKPEDTAVYYCAATAYWFYAKYYYWGQGTQVTVSS” here?
Its value is “high polyreactivity”.

For “QVQLVESGGGLVQAVGSLRLSCAASGRIFRVNAMGWYRQAPGKERELVASITSGGSTHYADSVKGRFTISRDNAKNTVYLQMNSLKPEDTAVYYCNVAYGLLWISPGGDYWGQGTQVTVSS”, which “polyreactivity (PSR sort gate)” value is on record?
The value was “low polyreactivity”.

For “QVQLVESGGGLVQAVGSLRLSCAASGRTFYYYAMGWYRQAPGKERELVASITYYADSVKGRFTISRDNAKNTVYLQMKSLKPEDTAVYYCAARANSYHSFTSHYDYWGQGTQVSVSS”, which “polyreactivity (PSR sort gate)” value is on record?
The value was “low polyreactivity”.

For “QVQLVESGGGLVQAVGSLRLSCAASGSIFGGYAMGWYRQAPGKERELVAAITYSGGSTYYADSVKGRFTISRDNAKNTVYLQMNSLKPEDTAVYYCAAESYDPYYEYDYWGQGTQVTVSS”, which “polyreactivity (PSR sort gate)” value is on record?
Its value is “high polyreactivity”.

Which “polyreactivity (PSR sort gate)” value does the source give for “QVQLVESGGGLVQAVGSLRLSCAASGSIFQPYAMGWYRQAPGKERELVAAISIGDSTNYADSVKGRFTISRDNAKNTVYLQMNSLKPEDTAVYYCNTTGEYYDYWGQGTQVTVSS” here?
The value was “low polyreactivity”.

For “QVQLVESGGGLVQAVGSLRLSCAASGSTFLLNAMGWYRQAPGKEREFVAAITGNAGSTYYADSVKGRFTISRDNAKNTVYLQMNSLKPEDTAVYYCAAALPGYDGDYWGQGTQVTVSS”, which “polyreactivity (PSR sort gate)” value is on record?
The value was “low polyreactivity”.

For “QVQLVESGGGLVQAVGSLRLSCAASGSTLTSYGMGWYRQAPGKERELVAAISRNGGGTYYADSVKGRFTISRDNAKNTVYLQMNSLKPEDTAGYYCAVVRYSSRYDYWGQGTQVTVSS”, which “polyreactivity (PSR sort gate)” value is on record?
The value was “high polyreactivity”.

For “QVQLVESGGGLVQAVGSLRLSCADSGLPFYRNAMGWYRQARGKVRELVAAISLRGGSTYYADSVKGRFTISRDHAKNPVYLQMNSLKPEDTAVYYCAARRWWLNLDYWGQGTQVTVSS”, which “polyreactivity (PSR sort gate)” value is on record?
Its value is “high polyreactivity”.

Which “polyreactivity (PSR sort gate)” value does the source give for “QVQLVESGGGLVQAVGSLRLSCDATGSTLHKNTMGWYRQAPAKERELVAAISRRGGSTYYADSVKGRFTISRDNAKITVYLQMNSLKPEDTAVYYCATEGYDGEFDYWGQGTQVTVSS” here?
The value was “high polyreactivity”.

For “QVQLVESGGGLVQAVGSLRLTCAASGITFLNYAMGWYRQAPGKERELVSAISWSGGRTYYAVSVKGRFTISRDYAKNTVYLQMNSLKPEDTAVYYCATVYVRYRQSRLIRYGYWGQGTQVTVSS”, which “polyreactivity (PSR sort gate)” value is on record?
The value was “high polyreactivity”.

With “QVQLVESGGGLVQAVVSLRLSCAASGSIFGGYAMGWYRQAPGKERELVAAISYRGASTYYADSVKGRFTISRDNAKNTVYLQMNSLKPEDTAVYYCAVAARTRARVLYGYDYWGQGTQVTVSS” as the sequence, how does the “polyreactivity (PSR sort gate)” value read?
The value was “low polyreactivity”.

Which “polyreactivity (PSR sort gate)” value does the source give for “QVQLVESGGGLVQEGCSLRLSCAPSGIIFGVNAMGLYRQAPAKERELVAVITWSGGSTYYADSVKGRFTISRDNAKNTVYLQMNSLKPEDTAVYYCNADSSASTIDRQGEYYYLGQGTQVTVSS” here?
The value was “low polyreactivity”.

Which “polyreactivity (PSR sort gate)” value does the source give for “QVQLVESGGGLVQEGGRLRISCAATGINFSWYAMGWNRPATGKERELVASITIGGNTNFADSVKGRFTISLYNAKNSVYLQMNSLKREDTAVYYCAAQTFWYGYGGGVYWGQGTQVTVSS” here?
The value was “low polyreactivity”.

With “QVQLVESGGGLVQEGGRLRLSCAASGRIISINAMGWYRQAPGKERELVAAITRGGTTYADSVKGRFTISRDIAKNTVYLHMNRLKPEDPAVYYCNARTGRSPSGFRYWGQGTQVTVSS” as the sequence, how does the “polyreactivity (PSR sort gate)” value read?
The value was “high polyreactivity”.

For “QVQLVESGGGLVQEGGSIRLSCAASGRIFYFNTMGWSRQAPGKERELVAAISKNGGSTYYADSVKGRFTISRDNEKNSVYLQMNSLKPEDTAFYLCAKTRRLSPYDYWGLGTQVTVSS”, which “polyreactivity (PSR sort gate)” value is on record?
The value was “high polyreactivity”.

With “QVQLVESGGGLVQEGGSLGLSCAASGRIFIPYAMGWYRQETGKEREFVATIRWRGGRTYYADSVKGRFTISRDNAKNTVYLQLYSLKPEDTAVYYCAARSNALFRFDYWGQGTQVSVSS” as the sequence, how does the “polyreactivity (PSR sort gate)” value read?
Its value is “high polyreactivity”.

With “QVQLVESGGGLVQEGGSLRIICAASGFIFYYYAMGWYRQAPGKERELVAGISRRGGSTYYADSVKGRFTISRDNAKNTVYLQMNSLKPEDTAVYYCAALGDDATSYGYWGQGTQVTVSS” as the sequence, how does the “polyreactivity (PSR sort gate)” value read?
Its value is “high polyreactivity”.

With “QVQLVESGGGLVQEGGSLRLICAASGLIFRTYTMGWYRQAPGKERELVATITRRGGTTYYADSVKGRFTISRDNAKNTVYLQMNSLKPEDTAVYYCAKSPYYTWKYDYWGQGTQVTVSS” as the sequence, how does the “polyreactivity (PSR sort gate)” value read?
Its value is “high polyreactivity”.

Which “polyreactivity (PSR sort gate)” value does the source give for “QVQLVESGGGLVQEGGSLRLICAASGRIFFYYAMGWYRQAPGKERELVAAISQSGGSTYYADSVKGRFTISRDNAKNTVYLQMNSLKPEDPAVYYCNAAEPYYDTSAVAGDYWGQGTQVTVSS” here?
Its value is “low polyreactivity”.

With “QVQLVESGGGLVQEGGSLRLICAASGRTFRHNVMGWYRQAPGKQRELVAAISYSGGSTHYADSVKGRFTISRDNAKYTVYLQMNSLKPVDTAVYYCNRYSYDSHFLYPFRGHDYWGQGTQVTVSS” as the sequence, how does the “polyreactivity (PSR sort gate)” value read?
Its value is “low polyreactivity”.

For “QVQLVESGGGLVQEGGSLRLICAASGSTFIYNAMGWYRQAPGKERELVASISTSGGSTYYADSVKGRFTISRDNAKNTVYFQMNSLIPEDTAVYYCAKRYFFKYGYWGQGTQVTVSS”, which “polyreactivity (PSR sort gate)” value is on record?
The value was “high polyreactivity”.

With “QVQLVESGGGLVQEGGSLRLNCAASGSTFWGNAMGWYRQPPGKDRELVAAISTSDTSTYYADSVKGRFTISRDNAKNTVYLQMNSLKPEDTAVYFCAAEWYYGEKYDYWGQGTQVTVSS” as the sequence, how does the “polyreactivity (PSR sort gate)” value read?
Its value is “low polyreactivity”.

For “QVQLVESGGGLVQEGGSLRLRCAASGGIFASNAMRWYRQAPGKERELLATITRGGSTNYADSVKGRFTISRDNAKNTVYLQMNSLKPEDTAVYYCAARFYSRAFWPAYYYWGQGTQVTVSS”, which “polyreactivity (PSR sort gate)” value is on record?
Its value is “high polyreactivity”.

Which “polyreactivity (PSR sort gate)” value does the source give for “QVQLVESGGGLVQEGGSLRLSCAASGFIFLYYAMGWYRQAPGKERELVASINRVGSTYYADSVKGRFTISRDNAKKTVYLQMNSLKPEVTAVYYCNARWIGRLTPYRRATYNYWGQVTQVTVSS” here?
The value was “high polyreactivity”.

Which “polyreactivity (PSR sort gate)” value does the source give for “QVQLVESGGGLVQEGGSLRLSCAASGFIFTPNTMGWYRQAPGKERELVAAITTNGGRTYYADSVKGRFTISRDNAKNTVYLQMNSLKSEDTAVYYCAARYVSSFGLHAQVWSYYYCGQGTQVTVSS” here?
Its value is “high polyreactivity”.

Which “polyreactivity (PSR sort gate)” value does the source give for “QVQLVESGGGLVQEGGSLRLSCAASGFIFVTNAMGWYRQAPGKERELVAAITIGDSTYYADSVKGRFTISRDNAKNTVYLQMNSLKPEDTAVYYCAAEVGFGPGFSTIAYTFDYWGQGTQVTVSS” here?
Its value is “low polyreactivity”.

Which “polyreactivity (PSR sort gate)” value does the source give for “QVQLVESGGGLVQEGGSLRLSCAASGFTFPDYAMGWNRQAPGKERDLVAAITSSGGSTYYADSVKGRFTISRDNAKNTVYLQMNSLKPEDTAVYYCNGYISDDRYWSPAIEEDYWGQGTQVTVSS” here?
The value was “high polyreactivity”.

For “QVQLVESGGGLVQEGGSLRLSCAASGFTFPYYAMGWYRQAPGKERELVAAISNGGSNTYYADSVKGRFTISRDNAKNTVYVQMNSLKPEDTAVYYCAARVGGSYDYWGQGTQVTVSS”, which “polyreactivity (PSR sort gate)” value is on record?
The value was “high polyreactivity”.

For “QVQLVESGGGLVQEGGSLRLSCAASGFTFPYYAMGWYRQAPGKERELVAAITSSGTITYYADSVKGRFTISRDNAKNTVYLQMNSLKPEDTAVYYCAARFSSTRYLQWYYYWGQGTQVTVSS”, which “polyreactivity (PSR sort gate)” value is on record?
The value was “high polyreactivity”.

Which “polyreactivity (PSR sort gate)” value does the source give for “QVQLVESGGGLVQEGGSLRLSCAASGLIFNRYAMGWYRQAPGKERELVAAITSRGGRTYYADSVKGRFTISRDNAKNTVYLQMNSLKPEDTAVYYCNRTPTGSYLYGMDYWGQGTQVTVSS” here?
The value was “high polyreactivity”.

For “QVQLVESGGGLVQEGGSLRLSCAASGRIFDENAMGWYRQAPGKERELVAAISSGDSTKYADSVKGRFTISRDNAKNTVYLQMNSLKPEDTAVYYCAAARNHGLVGSESVGRNDYWGQGTQVTVSS”, which “polyreactivity (PSR sort gate)” value is on record?
Its value is “low polyreactivity”.

With “QVQLVESGGGLVQEGGSLRLSCAASGRIFENNAMGWYRQAPGKERELVAAITSGGSTYYADSVKGRFTISRDNAKNTVYLQMNSLKPEDTAVYYCNVTFRVDPWTRTGYDYWGQGTQVTVST” as the sequence, how does the “polyreactivity (PSR sort gate)” value read?
Its value is “high polyreactivity”.

For “QVQLVESGGGLVQEGGSLRLSCAASGRIFNGYAMGCYRQAPGKERELVAAINSSGGSTYYADSVKGRFTISRDNAKNTVYLQMNSLKPEDTAVYYCARVSYHYRTYDYWGQGTQVTVSS”, which “polyreactivity (PSR sort gate)” value is on record?
Its value is “high polyreactivity”.

Which “polyreactivity (PSR sort gate)” value does the source give for “QVQLVESGGGLVQEGGSLRLSCAASGRIFNTNAMGWSRQAPGKERELVAGITDSGDSTYDADSVKGRFTISRDNAKNTVYLQMYSLKPEDTGVYYCATDPASPYIYDYWGQGTQVTVSS” here?
Its value is “low polyreactivity”.

Which “polyreactivity (PSR sort gate)” value does the source give for “QVQLVESGGGLVQEGGSLRLSCAASGRIFPYYAMGWYRQAPGKERELVATITSGGSTYYADSVKGRFTISRDNAKNTVYLQMNSLKPEDTAVYYCAARYPSIYYYRYDYWGQGTQVTVSS” here?
The value was “high polyreactivity”.

For “QVQLVESGGGLVQEGGSLRLSCAASGRTFADYTMGWYRQAPGKERELVAAISFSGGSTYYEDSVKGRFTISRDNAKNTVYLQMNSLKPEDTAFYYCAAGHKRRAPRYYYWGQGTQVTVSS”, which “polyreactivity (PSR sort gate)” value is on record?
The value was “high polyreactivity”.

For “QVQLVESGGGLVQEGGSLRLSCAASGRTFKKYAMGWYRQAPGKERELVAAITGSGGSTYYADSVKGRFTISRDNAKNTVYLQMNSLKPEDSAVYYCAAYAYGVWHSQDGGNYWGQGTQVTVSS”, which “polyreactivity (PSR sort gate)” value is on record?
The value was “low polyreactivity”.
